Results reported in article PMC10393192, “Structure and DNA-bridging activity of the essential Rec114–Mei4 trimer interface”.

Experiments:
Rec114C;Mei4N [1] = molecular target: T1, Rec114C;Mei4N (Saccharomyces cerevisiae;Saccharomyces …, UniProt P32841;P29467 375-428;1-43, |); assay: EMSA; conditions: C50; EMSA: 25 mM Tris-HCl pH 7.4, 100 mM NaCl, 5 ng DNA, 20 min, room temperature; AFM: 25 mM HEPES-NaOH pH 7.4, 5 mM MgCl2, 50 mM NaCl, 10% glycerol, 30 min, RT …
T1 sequence 1: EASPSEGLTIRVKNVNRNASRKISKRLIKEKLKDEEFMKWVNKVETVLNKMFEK
T1 sequence 2: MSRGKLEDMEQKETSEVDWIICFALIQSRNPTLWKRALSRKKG

[2] = molecular target: T2, Rec114C (Saccharomyces cerevisiae) (UniProt P32841); assay: EMSA; conditions: C50, single experiment; main text ~300-400 nM; concentration as dimer; EMSA: 25 mM Tris-HCl pH 7.4, 100 mM NaCl, 5 ng DNA, 20 min, room temperature; AFM: 25 mM HEPES-NaOH pH 7.4, 5 mM MgCl2, 50 mM NaCl, 10% glycerol, 30 min, RT …
T2 sequence: T1 sequence 1

Rec114C;Mei4N [3] = molecular target: T1, Rec114C;Mei4N; assay: EMSA; C50; main text gives ~800 nM; EMSA: 25 mM Tris-HCl pH 7.4, 100 mM NaCl, 5 ng DNA, 20 min, room temperature; AFM: 25 mM HEPES-NaOH pH 7.4, 5 mM MgCl2, 50 mM NaCl, 10% glycerol, 30 min, RT; optical trap: same buffer plus 5 nM SYTOX Orange, RT; conditions: protein: recombinant;recombinant; tags: 6xHis-SUMO removed by Ulp1 (tagged chain);6xHis-SUMO removed by Ulp1 when on this chain; chain copies: 2;1; blunt
Rec114C;Mei4N [4] = molecular target: T1, Rec114C;Mei4N; assay: EMSA; C50; EMSA: 25 mM Tris-HCl pH 7.4, 100 mM NaCl, 5 ng DNA, 20 min, room temperature; AFM: 25 mM HEPES-NaOH pH 7.4, 5 mM MgCl2, 50 mM NaCl, 10% glycerol, 30 min, RT; optical trap: same buffer plus 5 nM SYTOX Orange, RT; conditions: protein: recombinant;recombinant; tags: 6xHis-SUMO removed by Ulp1 (tagged chain);6xHis-SUMO removed by Ulp1 when on this chain; chain copies: 2;1; blunt

1000-bp DNA
K half (Rec114C;Mei4N [1]): 80 nM | K half [2]: 300 nM

B1: dsDNA20 (dsDNA)
DNA 1: AAAGATGTCCTAGCAATGTA
DNA 2: TACATTGCTAGGACATCTTT
apparent K (half saturation) (Rec114C;Mei4N [3]): 600 ± 100 nM

B2: dsDNA80 (dsDNA)
DNA 1: CTAGTATAGAGCCGGCGCGCCATGTCTAGATAGCGTTAGGTCTGCCGAATAGTACTACTCGGATCCCGAGCGAACCACGC
DNA 2: GCGTGGTTCGCTCGGGATCCGAGTAGTACTATTCGGCAGACCTAACGCTATCTAGACATGGCGCGCCGGCTCTATACTAG
apparent K (half saturation) (Rec114C;Mei4N [4]): 100 ± 20 nM
